The labels stand for the following.
B1: FIXa-R318Y/T343R/E410N (activated Factor IX variant, mature FIX numbering) (protein)
chain 1: YNSGKLEEFVQGNLERECMEEKCSFEEAREVFENTERTTEFWKQYVDGDQCESNPCLNGGSCKDDINSYECWCPFGFEGKNCELDVTCNIKNGRCEQFCKNSADNKVVCSCTEGYRLAENQKSCEPAVPFPCGRVSVSQTSKLTR
chain 2: VVGGEDAKPGQFPWQVVLNGKVDAFCGGSIVNEKWIVTAAHCVETGVKITVVAGEHNIEETEHTEQKRNVIRIIPHHNYNAAINKYNHDIALLELDEPLVLNSYVTPICIADKEYTNIFLKFGSGYVSGWGRVFHKGYSALVLQYLRVPLVDRATCLRSTKFRIYNNMFCAGFHEGGRDSCQGDSGGPHVTEVEGTSFLTGIISWGEECAMKGKYGIYTKVSRYVNWIKNKTKLT
B2: FIXa-K228N/K247N/N249S/R318Y/R338E/T343R/R403E (activated Factor IX variant, mature FIX numbering) (protein)
chain 1: B1 chain 1
chain 2: B1 chain 2 with K48N, K67N, N69S, R158E, R223E, N230E
B3: FIXa-K228N/K247N/N249S/R318Y/R338E/T343R/E410N (activated Factor IX variant, mature FIX numbering) (protein)
chain 1: B1 chain 1
chain 2: B1 chain 2 with K48N, K67N, N69S, R158E
B4: FIXa-K228N/R318Y/R338E/T343R/R403E/E410N (activated Factor IX variant, mature FIX numbering) (protein)
chain 1: B1 chain 1
chain 2: B1 chain 2 with K48N, R158E, R223E
B5: FIXa-D203N/F205T/E410N (protein)
chain 1: B1 chain 1
chain 2: B1 chain 2 with D23N, F25T, Y138R, R163T
B6: FIXa-R318Y/R403E/E410N (protein)
chain 1: B1 chain 1
chain 2: B1 chain 2 with R163T, R223E
B7: FIXa-D203N/F205T/R338E (protein)
chain 1: B1 chain 1
chain 2: B1 chain 2 with D23N, F25T, Y138R, R158E, R163T, N230E
B8: FIXa-D203N/F205T/R338A (protein)
chain 1: B1 chain 1
chain 2: B1 chain 2 with D23N, F25T, Y138R, R158A, R163T, N230E
B9: FIXa-D203N/F205T/R338E/R403E (protein)
chain 1: B1 chain 1
chain 2: B1 chain 2 with D23N, F25T, Y138R, R158E, R163T, R223E, N230E
B10: FIXa-D104N/K106S/R318Y/R338E/E410N (protein)
chain 1: B1 chain 1 with D104N, K106S
chain 2: B1 chain 2 with R158E, R163T
B11: FIXa-D203N/F205T/K228N (protein)
chain 1: B1 chain 1
chain 2: B1 chain 2 with D23N, F25T, K48N, Y138R, R163T, N230E
B12: FIXa-D203N/F205T/R318Y (protein)
chain 1: B1 chain 1
chain 2: B1 chain 2 with D23N, F25T, R163T, N230E
B13: FIXa-Y155F/R318Y/R338E/E410N (protein)
chain 1: B1 chain 1
chain 2: B1 chain 2 with R158E, R163T
B14: FIXa-K228N/R318Y/E410N (protein)
chain 1: B1 chain 1
chain 2: B1 chain 2 with K48N, R163T
B15: FIXa-R318Y/R338E/R403E/E410N (protein)
chain 1: B1 chain 1
chain 2: B1 chain 2 with R158E, R163T, R223E
B16: FIXa-R318Y/R338E/E410N (protein)
chain 1: B1 chain 1
chain 2: B1 chain 2 with R158E, R163T
B17: FIXa-K228N/R338E/R403E (protein)
chain 1: B1 chain 1
chain 2: B1 chain 2 with K48N, Y138R, R158E, R163T, R223E, N230E

As a reminder, the kcat is the maximal rate divided by the concentration of active sites. One may read the kcat/KM as the turnover number divided by the Michaelis constant. What is called KM is the concentration of substrate that gives half-maximal velocity.

Positions count from the first letter of the chain named. Names and notes keep the numbering of the source. Values joined by “and” are separate entries in the source; they are usually repeats but may differ in a detail not shown here. Equal entries are not always repeated.

Factor X (FX) zymogen, active site titrated and DFP/EGR-cmk treated, P00742, sequence (P00742 whole entry, looked up): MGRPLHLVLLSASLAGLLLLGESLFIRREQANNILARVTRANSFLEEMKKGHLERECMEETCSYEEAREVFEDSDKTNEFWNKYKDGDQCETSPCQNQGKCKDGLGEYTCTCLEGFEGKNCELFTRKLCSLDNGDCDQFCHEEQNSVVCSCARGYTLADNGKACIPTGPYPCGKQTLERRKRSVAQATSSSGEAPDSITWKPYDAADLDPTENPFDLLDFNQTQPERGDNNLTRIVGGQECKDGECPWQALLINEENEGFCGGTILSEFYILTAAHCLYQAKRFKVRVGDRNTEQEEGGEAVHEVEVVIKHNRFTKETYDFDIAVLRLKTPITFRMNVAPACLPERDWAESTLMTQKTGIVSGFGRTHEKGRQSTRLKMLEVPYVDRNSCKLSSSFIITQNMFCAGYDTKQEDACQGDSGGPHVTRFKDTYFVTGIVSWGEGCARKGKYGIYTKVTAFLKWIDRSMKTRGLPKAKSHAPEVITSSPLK

One series addresses Factor X (FX) zymogen, active site titrated and DFP/EGR-cmk treated, P00742.
Experiment: not given
For B1, the “% of WT kcat/KM (against recombinant Catalyst Biosciences WT FIXa)” value is on record as 135%; the kcat/KM (catalytic activity for FX activation; Xase complex with FVIIIa, PC/PS vesicles and Ca2+; fluorogenic Spectrafluor FXa read-out) was 6.2e+07 M⁻¹ s⁻¹.
B2: the “% of WT kcat/KM (against recombinant Catalyst Biosciences WT FIXa)” value came to 636%; the kcat/KM (catalytic activity for FX activation; Xase complex with FVIIIa, PC/PS vesicles and Ca2+; fluorogenic Spectrafluor FXa read-out) was 2.9e+08 M⁻¹ s⁻¹.
Taken in the same sequence, the figures for B3 were 278% and 1.3e+08 M⁻¹ s⁻¹.
The matching figures for B4: 593% and 2.7e+08 M⁻¹ s⁻¹.

The target in another series is Factor X (FX), P00742.
Factor X (FX), P00742, sequence (P00742 whole entry, looked up): as above
Experiment: not given
As to B5, the “% of WT kcat/KM” value came out at 94%, the kcat was 1.7 s⁻¹ and the kcat/KM is 4.2e+07 M⁻¹ s⁻¹.
On to B6, for which the catalytic constant (kcat) is 2.3 s⁻¹.
Turning to B7, the “% of WT kcat/KM” value was determined as 234%, the kcat stood at 2.5 s⁻¹ and the kcat/KM was found to be 1e+08 M⁻¹ s⁻¹.
The matching figures for B8: 139%, 2.3 s⁻¹ and 6.2e+07 M⁻¹ s⁻¹.
The matching figures for B9: 42%, 0.9 s⁻¹ and 1.9e+07 M⁻¹ s⁻¹.
As to B10, the kcat is 4.8 s⁻¹.
For the protein B11, the “% of WT kcat/KM” value came to 31%, the kcat was 0.6 s⁻¹ and the kcat/KM was found to be 1.4e+07 M⁻¹ s⁻¹.
The matching figures for B12: 45%, 0.9 s⁻¹ and 2e+07 M⁻¹ s⁻¹.
As to B13, the kcat was 5.6 s⁻¹.
Regarding B14, the kcat is 5 s⁻¹.
Turning to B15, the “catalytic activity (kcat/KM) for activation of FX” value is on record as “displayed some of the greatest increases in catalytic activity”; the kcat was 5 s⁻¹ and 5.8 s⁻¹.

The target of a further series is Factor X, P00742.
Factor X, P00742, sequence (P00742 whole entry, looked up): as above
Experiment: not given
Regarding B5, the KM was determined as 0.0455 µM.
On the same count and under the same terms, the same measure for B6: 0.0883 µM; for B16: 0.0142 µM.
For B7, the KM stood at 0.0241 µM.
On the same count and under the same terms, next, B17: 0.0592 µM; B8: 0.0385 µM.
The same measure, in the same setting: next, B9: 0.0511 µM.
Same read-out and setting: the same measure for B10: 0.0189 µM.
In the case of B11, the KM was found to be 0.0399 µM.
For B12, the Michaelis-Menten constant (KM) stood at 0.0475 µM.
For the protein B13, the KM was 0.016 µM.
In the case of B14, the KM came out at 0.042 µM.
With B15, the KM is 0.0455 µM.

A further series has as its target antithrombin III (plasma purified human AT-III), used as the AT-III/unfractionated heparin complex. Kind of series: K0.5 ratio to Catalyst Biosciences WT FIXa, AT-III/UFH inhibition assay.
Regarding B5, the K0.5-mut/K0.5-wt amounted to 19.5 fold.
The same measure, in the same setting: the same measure for B6: 366 fold; for B16: 179 fold; for B7: 60.5 fold.
Still for that read-out and setting: the same measure for B17: 86.8 fold; for B8: 21.9 fold.
For the protein B9, the K0.5-mut/K0.5-wt was found to be 78.6 fold.
As for B10, the K0.5-mut/K0.5-wt was determined as 327 fold.
With B11, the K0.5-mut/K0.5-wt was 42.5 fold.
On the same count and under the same terms, the same measure for B12: 374 fold.
As to B13, the K0.5-mut/K0.5-wt was 56.8 fold.
In the case of B14, the K0.5-mut/K0.5-wt amounted to 24.6 fold.
As for B15, the K0.5-mut/K0.5-wt was 304 fold.

In another series the target is T1, Antithrombin III (plasma purified human AT-III, Molecular Innovations). Kind of series: same assay; ratio to recombinant wild-type FIXa (Catalyst Biosciences WT).
Regarding B5, the K0.5-mut/K0.5-wt is 19.5.
On the same count and under the same terms, next, B6: 366.
Same read-out and setting: the same measure for B16: 179; for B7: 60.5.
B17: the K0.5-mut/K0.5-wt is 86.8.
In the case of B8, the K0.5-mut/K0.5-wt stood at 21.9.
On to B9, for which the K0.5-mut/K0.5-wt stood at 78.6.
In the case of B10, the K0.5-mut/K0.5-wt stood at 327.
Still for that read-out and setting: the same measure for B11: 42.5.
Take B12: the K0.5-mut/K0.5-wt stood at 374.
On the same count and under the same terms, next, B13: 56.8; B14: 24.6.
Consider B15, for which the K0.5-mut/K0.5-wt was 304.

The next series has as its target T1, Antithrombin III (plasma purified human …). In words: AT-III/UFH inhibition: FIXa variant incubated with AT-III dilutions in excess unfractionated heparin, residual cleavage of Mesyl-D-CHG-Gly-Arg-AMC; K0.5 = AT-III concentration for 50% inhibition (IC50).
B5 gave a K0.5 of 377 nM.
Still for that read-out and setting: the same measure for B6: 7070 nM; for B16: 3460 nM.
In the case of B7, the K0.5 is 1170 nM.
Same read-out and setting: next, B17: 1680 nM; B8: 423 nM.
Still for that read-out and setting: the same measure for B9: 1520 nM; for B10: 6330 nM.
Same read-out and setting: next, B11: 822 nM; B12: 7230 nM; B13: 1100 nM.
Turning to B14, the K0.5 came to 475 nM.
On the same count and under the same terms, next, B15: 5880 nM.
